Laboratory results reported in PMC8795526.
pKd: −log10 of the molar value.

Molecular target: human neonatal Fc receptor (hFcRn) (human) (UniProt P55899)
Assay: SPR

pKd: 6.27
Substance: 3F6-hIgG1 (antibody)
